± gives the standard deviation of the averaged measurements.
system: ATP; assay: switch fluorescence ratio, 500 uM ATP over buffer (Cy3 cluster intensity, sum of 5 cycles each) (fold (ratio)); higher = stronger signal-on switching upon ATP binding; sequences stand for … in TCGTCGGCAGCGTCAGATGTGTATAAGAGACAGTTTTTTTTTTTTTTTTTTTTTTTTT…TC; conditions: aptamer strand: ATP DNA aptamer (quencher-CACCTGGGGGAGTATTGCGGAGGAAGG + anchor), 100 nM annealed; ATP concentration: 500 uM
In short: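 Cy3-labelled switching-strand clusters on a modified Illumina MiSeq flow-cell were annealed to 100 nM quencher-labelled ATP aptamer, imaged in selection buffer, then imaged after 15 min with 500 uM ATP at 22 °C. Five buffer/ATP cycles ran, with NaOH stripping and re-annealing between them. The fluorescence ratio is summed target-cycle over summed buffer-cycle Cy3 intensity per cluster, averaged per switch-domain sequence. Clusters outside 100-1000 RFU were excluded.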
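Note: ATP exposure 15 min at 22 °C before imaging.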

Sequence | switch fluorescence ratio
CGTGGTGGGT | 0.963 ± 0.025
CACTTTTTTT | 1.01 ± 0.063
TAGAGAAGCC | 1.04 ± 0.025
ACAGCGTTTG | 0.983 ± 0.03
TTAATTTCTA | 0.9901 ± 0.0058
ATGCTACCGT | 1.03 ± 0.049
GTCTTTTTAA | 1.03 ± 0.032
TGATGGGAGT | 0.983 ± 0.014
AGGAGGGTGG | 1.02 ± 0.044
ACCCGGATGG | 1.01 ± 0.021
AAAATAATGG | 0.998 ± 0.04
TTAGCTTGCT | 1.019 ± 0.0035
AGAAAAAGGG | 1.01 ± 0.037
TTTGGTTAGT | 0.991 ± 0.023
TAGCTCCGGG | 1.055 ± 0.0063
GAACGAAAGG | 1.03 ± 0.042
AAGTACGTAG | 1.011 ± 0.0065
TTGGCGCTTG | 1.02 ± 0.025
ATACTTACCG | 1.223 ± 0.0077
ATGGCGAGGT | 1.01 ± 0.059
TCGGCCAGTT | 1.01 ± 0.037
TTTGTCCTTT | 1.029 ± 0.0084
GTGTAAAAGC | 1.03 ± 0.011
TTTATAATCT | 1.05 ± 0.019
TGGTCTATTT | 0.965 ± 0.019

Sequence | switch fluorescence ratio
GATTTGTGAC | 0.977 ± 0.052
ATGGGGGACT | 1.02 ± 0.051
GCGTTATTTT | 1.012 ± 0.0076
GGTGGTGTTT | 1 ± 0.026
TTTTTGGTTA | 1 ± 0.016
CGTAAAAGGC | 0.994 ± 0.027
GGGCAAGTGT | 1.06 ± 0.034
CAATTGCAAT | 1.02 ± 0.02
GGCGGGGCTT | 0.968 ± 0.025
CCTGTGCGGA | 1.534 ± 0.013
CGGATAGTCA | 1.042 ± 0.0078
GCGCTCGTCG | 1.07 ± 0.012
CACTGGCATG | 0.998 ± 0.029
CCTGGGGGGA | 1.02 ± 0.059
AGCTTTGGGT | 1.01 ± 0.016
AGTTTGGTGC | 1.05 ± 0.027
AAATACAAGG | 1.15 ± 0.24
GGGTGACCAA | 0.969 ± 0.013
GGGTCGGGTT | 0.972 ± 0.037
TCGTTGGTTG | 1.02 ± 0.051
GTGTAAGTGT | 0.9821 ± 0.0046
AGGGGGATAG | 0.967 ± 0.052
AAGGTGGGTT | 1.01 ± 0.059
AGTTGGTTAT | 0.974 ± 0.022
AAAGTTGCTA | 0.985 ± 0.019

Sequence | switch fluorescence ratio
ATTGGCGTAT | 0.987 ± 0.026
TGTGTATTTT | 0.992 ± 0.028
ACTTTGGCGG | 0.981 ± 0.044
GCTAACATTT | 0.974 ± 0.029
TCGGCTGTTG | 1 ± 0.028
CTGTTGATGG | 1 ± 0.027
GCTGTTGGGA | 0.9968 ± 0.0078
GAGGGGACAG | 0.979 ± 0.035
TTATGTGGGC | 0.97 ± 0.022
CCAGGTGGCT | 2.64 ± 0.3
GCTATTCGAA | 1.01 ± 0.061
GTCGGGGGGG | 0.999 ± 0.031
CATTTGGGCG | 1.03 ± 0.015
TTTGACTAGG | 1.01 ± 0.038
TGTTCTTATA | 0.993 ± 0.026
TATGAGATTA | 0.9935 ± 0.004
AGACGGGGGG | 1 ± 0.039
TGGGGGGCGA | 0.997 ± 0.011
GCATGATGCG | 0.994 ± 0.013
AGTACATGAT | 1.02 ± 0.025
ACCTTAGTGC | 1.1 ± 0.048
CTGTAAGTGG | 0.989 ± 0.017
GGTACTTGGA | 1.04 ± 0.032
GCAATTGCCT | 0.989 ± 0.029
CTCAGAATAG | 1.37 ± 0.075

Sequence | switch fluorescence ratio
ATACGGTAGG | 1.006 ± 0.01
TACTAGGCAA | 1.21 ± 0.04
GATGTAGGGA | 1.02 ± 0.029
TTGTGGCGTT | 0.984 ± 0.0045
CGTACGTTG | 1 ± 0.022
CAGAAGCGAT | 1.33 ± 0.025
CTGGACCGGC | 0.967 ± 0.014
TGATAGCCAG | 0.9605 ± 0.0072
TTTACCAGGG | 1.13 ± 0.085
TAAGGGGTTA | 0.992 ± 0.029
AGGGATTGAT | 1.01 ± 0.059
GAGGACCCAG | 1.01 ± 0.027
GGGGCTTTTA | 0.97 ± 0.01
TTTGATGCAT | 1.03 ± 0.026
GTATAAAGGG | 1.02 ± 0.048
GGATAAAAAT | 1.02 ± 0.025
TATATAGTCT | 1.024 ± 0.0086
TGGGAGGTTT | 1.05 ± 0.18
GGGTAAGAG | 1.029 ± 0.0042
CCTATACAAC | 1.11 ± 0.044
GGCCCGTGCA | 1.004 ± 0.0015
CCTGGCAAGT | 1.87 ± 0.078
ACATTGGGCT | 1.01 ± 0.072
CGAAGCTGGT | 1.075 ± 0.0037
ATATGGACGC | 1.01 ± 0.046

Source: the supplement of paper PMC10126150
